Paper PMC9728165, “Improving Catalytic Efficiency and Changing Substrate Spectrum for Asymmetric Biocatalytic Reductive Amination” (Journal of Microbiology and Biotechnology, 2019)
Changes are numbered by the printed parent chain. Names and notes keep the numbering of the source.

B1: PheDH (Halalkalibacterium halodurans C-125) (protein)
chain: MLTKTPTVTSTLDIFTEMAEHEQVLFCHDPSSGLRAIIAIHDTTLGPALGGCRMYPYQTTEDALRDVLRLSKGMTQKCAAADVDFGGGKAVIIGDPAKDKSANLFRAFGQFVESLNGRFYTGTDMGTTMEDFVHALKETNGIVGIPKEYGGSGDSSVPTAKGVINSLKAISQVVLKDKQFSGRTYAIQGLGKVGFKVAEELLKEGNDLYVSDLQESLPLRLQQLGQRLGRHVEILHGDEIYEAAADVFVPCAQGAILNDATIARLKVKAIAGAANNQLEAERHGQMLHDQGIWFAPDYIVNSGGLIQVADELYGSNEKRVLSKTNAIYDTILEIFHQAERHHITTLQAANQLCERRIRERARRNNFFVNRIRPKWNLRK
B2: PheDH (Halalkalibacterium halodurans C-125; E113D) (protein)
chain: B1 chain with E113D
B3: PheDH (Halalkalibacterium halodurans C-125; E113D/N276L) (protein)
chain: B1 chain with E113D, N276L
B4: PheDH (Halalkalibacterium halodurans C-125; N276L) (protein)
chain: B1 chain with N276L

Substrate: N[C@@H](Cc1ccccc1)C(=O)O
Assay: purified protein
Type: biochemical, Halalkalibacterium halodurans
Conditions: oxidative deamination, 2 mM NAD+, 50 mM glycine-KCl-KOH pH 10.4, 25°C

Protein | Km | kcat
B1 | 6.88 ± 0.41 mM | 2.4847 ± 0.0035 s⁻¹
B2 | 8.28 ± 0.4 mM | 12.193 ± 0.005 s⁻¹
B3 | 5.14 ± 0.3 mM | 11.26 ± 0.055 s⁻¹
B4 | 8.71 ± 0.2 mM | 8.8435 ± 0.0687 s⁻¹

Substrate: O=C(O)C(=O)Cc1ccccc1
Assay: purified protein
Type: biochemical, Halalkalibacterium halodurans
Conditions: reductive amination, 500 mM ammonia, 100 microM NADH, glycine-KCl-KOH pH 10.4, 25°C

Protein | Km | kcat
B1 | 0.337 ± 0.05 mM | 10.296 ± 0.0167 s⁻¹
B2 | 7.607 ± 0.2 mM | 25.1237 ± 0.0167 s⁻¹
B3 | 0.812 ± 0.01 mM | 39.0852 ± 0.0667 s⁻¹
B4 | 1.05 ± 0.1 mM | 31.321 ± 0.0383 s⁻¹
